Data published in patent publication US20230340058A1.
Substitutions are numbered along the chain they refer to.

B1: SEQ ID NO: 78 (Fc fusion)
chain: DKTHTCPPCPAPEAAGGPSVFLFPPKPKDTLMISRTPEVTCVVVDVSHEDPEVKFNWYVDGVEVHNAKTKPREEQYNSTYRVVSVLTVLHQDWLNGKEYKCKVSNKALAAPIEKTISKAKGQPREPQVYTLPPSRDELTKNQVSLTCLVKGFYPSDIAVEWESNGQPENNYKTTPPVLDSDGSFFLYSKLTVDKSRWQQGNVFSCSVLHEALHSHYTQKSLSLSPGGGSDSWQEEVIKLCGRELVRAQIAICGKSTGGGEEGGGEEGGGRQLYSALANKCCHVGCTKRSLAQFC
B2: SEQ ID NO: 79 (Fc fusion)
chain: DKTHTCPPCPAPEAAGGPSVFLFPPKPKDTLMISRTPEVTCVVVDVSHEDPEVKFNWYVDGVEVHNAKTKPREEQYNSTYRVVSVLTVLHQDWLNGKEYKCKVSNKALAAPIEKTISKAKGQPREPQVYTLPPSRDELTKNQVSLTCLVKGFYPSDIAVEWESNGQPENNYKTTPPVLDSDGSFFLYSKLTVDKSRWQQGNVFSCSVLHEALHSHYTQKSLSLSPGKGGSDSWQEEVIKLCGRELVRAQIAICGKSTGGGEGGGEGGGEGRQDYSALANKCCHVGCTKRSLAQFC
B3: SEQ ID NO: 80 (Fc fusion)
chain: B1 chain with E261G, G264E, E265G, E266G, G268E, L272D, Q292R
B4: SEQ ID NO: 81 (Fc fusion)
chain: B1 chain with E261G, G264E, E265G, E266G, G268E, L272D
B5: SEQ ID NO: 82 (Fc fusion)
chain: B2 chain with G260E, E261G, G262E, G267E, E269G, G270S, D273L
B6: SEQ ID NO: 83 (Fc fusion)
chain: B1 chain with G259E, E260G, G264E, E265G, G269S, Q292R
B7: SEQ ID NO: 84 (Fc fusion)
chain: B1 chain with G259E, E260G, G264E, E265G, G269S
B8: SEQ ID NO: 85 (Fc fusion)
chain: B2 chain with G260E, E261G, G262E, G267E, E269G, G270S

target: human RXFP1, full-length (human), Q9HBX9; assay: cell-based or functional assay
Sequence (Q9HBX9 whole entry): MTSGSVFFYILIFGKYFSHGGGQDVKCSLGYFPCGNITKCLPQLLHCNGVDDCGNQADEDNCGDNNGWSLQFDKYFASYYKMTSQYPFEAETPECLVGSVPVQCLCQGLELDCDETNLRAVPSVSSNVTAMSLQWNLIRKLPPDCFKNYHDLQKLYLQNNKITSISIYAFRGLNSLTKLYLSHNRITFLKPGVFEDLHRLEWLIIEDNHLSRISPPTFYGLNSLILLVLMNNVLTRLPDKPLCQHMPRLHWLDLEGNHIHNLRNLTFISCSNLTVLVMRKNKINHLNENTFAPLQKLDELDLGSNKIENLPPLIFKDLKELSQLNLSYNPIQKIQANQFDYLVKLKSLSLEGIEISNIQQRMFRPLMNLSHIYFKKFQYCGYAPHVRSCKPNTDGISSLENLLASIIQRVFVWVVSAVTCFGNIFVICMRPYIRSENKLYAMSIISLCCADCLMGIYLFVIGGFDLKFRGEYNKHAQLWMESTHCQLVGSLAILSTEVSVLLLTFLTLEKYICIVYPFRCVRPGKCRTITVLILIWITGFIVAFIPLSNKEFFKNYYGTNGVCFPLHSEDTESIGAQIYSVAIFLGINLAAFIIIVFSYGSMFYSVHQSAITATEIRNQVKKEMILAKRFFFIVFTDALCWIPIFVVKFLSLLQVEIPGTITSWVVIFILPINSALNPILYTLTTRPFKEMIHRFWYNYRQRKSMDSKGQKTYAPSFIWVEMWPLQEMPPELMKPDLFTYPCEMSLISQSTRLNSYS

Q: How did the Potency Assay EC50 (nM), transient hRXFP1 cAMP assay turn out when B1 was run?
A: Its Potency Assay EC50 (nM), transient hRXFP1 cAMP assay is 23.4 nM.

Q: How did the Potency Assay EC50 (nM), transient hRXFP1 cAMP assay turn out when B2 was run?
A: Its Potency Assay EC50 (nM), transient hRXFP1 cAMP assay is 117 nM.

Q: B3 was tested. Which Potency Assay EC50 (nM), transient hRXFP1 cAMP assay did it give?
A: The Potency Assay EC50 (nM), transient hRXFP1 cAMP assay was 162 nM.

Q: For B4, which Potency Assay EC50 (nM), transient hRXFP1 cAMP assay is on record?
A: The Potency Assay EC50 (nM), transient hRXFP1 cAMP assay was 426 nM.

Q: Which Potency Assay EC50 (nM), transient hRXFP1 cAMP assay does the source give for B5 here?
A: The Potency Assay EC50 (nM), transient hRXFP1 cAMP assay was 18.9 nM.

Q: Which Potency Assay EC50 (nM), transient hRXFP1 cAMP assay does the source give for B6 here?
A: The Potency Assay EC50 (nM), transient hRXFP1 cAMP assay was 9.3 nM.

Q: For B7, which Potency Assay EC50 (nM), transient hRXFP1 cAMP assay is on record?
A: Its Potency Assay EC50 (nM), transient hRXFP1 cAMP assay is 41.9 nM.

Q: For B8, which Potency Assay EC50 (nM), transient hRXFP1 cAMP assay is on record?
A: Its Potency Assay EC50 (nM), transient hRXFP1 cAMP assay is 54.4 nM.
